Measured values: IntAct's records for PubMed 20596027

B1: Centriolar coiled-coil protein of 110 kDa (Homo sapiens), O43303-2 (parent)
chain: MEEYEKFCEKSLARIQEASLSTESFLPAQSESISLIRFHGVAILSPLLNIEKRKEMQQEKQKALDVEARKQVNRKKALLTRVQEILDNVQVRKAPNASDFDQWEMETVYSNSEVRNLNVPATFPNSFPSHTEHSTAAKLDKIAGILPLDNEDQCKTDGIDLARDSEGFNSPKQCDSSNISHVENEAFPKTSSATPQETLISDGPFSVNEQQDLPLLAEVIPDPYVMSLQNLMKKSKEYIEREQSRRSLRGSINRIVNESHLDKEHDAVEVADCVKEKGQLTGKHCVSVIPDKPSLNKSNVLLQGASTQASSMSMPVLASFSKVDIPIRTGHPTVLESNSDFKVIPTFVTENNVIKSLTGSYAKLPSPEPSMSPKMHRRRSRTSSACHILINNPINACELSPKGKEQAMDLIIQDTDENTNVPEIMPKLPTDLAGVCSSKVYVGKNTSEVKEDVVLGKSNQVCQSSGNHLENKVTHGLVTVEGQLTSDERGAHIMNSTCAAMPKLHEPYASSQCIASPNFGTVSGLKPASMLEKNCSLQTELNKSYDVKNPSPLLMQNQNTRQQMDTPMVSCGNEQFLDNSFEKVKRRLDLDIDGLQKENCPYVITSGITEQERQHLPEKRYPKGSGFVNKNKMLGTSSKESEELLKSKMLAFEEMRKRLEEQHAQQLSLLIAEQEREQERLQKEIEEQEKMLKEKKAMTAEASELDINNAVELEWRKISDSSLLETMLSQADSLHTSNSNSSGFTNSAMQYSFVSANEAPFYLWGSSTSGLTKLSVTRPFGRAKTRWSQVFSLEIQAKFNKITAVAKGFLTRRLMQTDKLKQLRQTVKDTMEFIRSFQSEAPLKRGIVSAQDASLQERVLAQLRAALYGIHDIFFVMDAAERMSILHHDREVRKEKMLRQMDKMKSPRVALSAATQKSLDRKKYMKAAEMGMPNKKFLVKQNPSETRVLQPNQGQNAPVHRLLSRQGSICRKNPKKAAKCCDNLRRQHSLG
partner: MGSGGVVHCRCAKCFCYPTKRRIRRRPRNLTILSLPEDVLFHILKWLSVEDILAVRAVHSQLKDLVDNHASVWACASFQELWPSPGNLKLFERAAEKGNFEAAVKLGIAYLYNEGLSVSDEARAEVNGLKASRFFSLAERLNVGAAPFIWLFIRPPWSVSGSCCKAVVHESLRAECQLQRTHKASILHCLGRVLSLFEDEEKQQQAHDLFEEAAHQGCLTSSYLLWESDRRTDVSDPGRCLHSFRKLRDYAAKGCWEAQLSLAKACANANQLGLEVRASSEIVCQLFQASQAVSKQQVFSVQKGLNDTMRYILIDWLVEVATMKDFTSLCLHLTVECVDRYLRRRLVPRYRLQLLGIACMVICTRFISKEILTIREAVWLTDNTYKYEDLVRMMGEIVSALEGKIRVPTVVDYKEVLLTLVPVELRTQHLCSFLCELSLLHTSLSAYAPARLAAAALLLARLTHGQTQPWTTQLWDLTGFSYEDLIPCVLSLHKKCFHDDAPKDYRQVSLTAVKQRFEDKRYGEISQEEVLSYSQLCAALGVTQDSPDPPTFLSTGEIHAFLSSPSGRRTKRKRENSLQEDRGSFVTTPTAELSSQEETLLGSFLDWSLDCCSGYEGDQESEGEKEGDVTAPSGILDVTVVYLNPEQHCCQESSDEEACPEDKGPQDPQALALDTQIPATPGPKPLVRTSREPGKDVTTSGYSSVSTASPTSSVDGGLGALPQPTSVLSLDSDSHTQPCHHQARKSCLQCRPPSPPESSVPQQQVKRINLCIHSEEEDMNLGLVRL
B2: Cyclin-F (Homo sapiens), P41002 (parent)
chain: B1 partner

Variants of: B1
Conditions: with ccnf_human CCNF

Row | Variant | effect of a mutation on the interaction
1 | L588A;L590A | disrupting interaction

Variants of: B2
Conditions: with cul1_human CUL1, Q13616
cul1_human CUL1, Q13616, sequence (Q13616 whole entry): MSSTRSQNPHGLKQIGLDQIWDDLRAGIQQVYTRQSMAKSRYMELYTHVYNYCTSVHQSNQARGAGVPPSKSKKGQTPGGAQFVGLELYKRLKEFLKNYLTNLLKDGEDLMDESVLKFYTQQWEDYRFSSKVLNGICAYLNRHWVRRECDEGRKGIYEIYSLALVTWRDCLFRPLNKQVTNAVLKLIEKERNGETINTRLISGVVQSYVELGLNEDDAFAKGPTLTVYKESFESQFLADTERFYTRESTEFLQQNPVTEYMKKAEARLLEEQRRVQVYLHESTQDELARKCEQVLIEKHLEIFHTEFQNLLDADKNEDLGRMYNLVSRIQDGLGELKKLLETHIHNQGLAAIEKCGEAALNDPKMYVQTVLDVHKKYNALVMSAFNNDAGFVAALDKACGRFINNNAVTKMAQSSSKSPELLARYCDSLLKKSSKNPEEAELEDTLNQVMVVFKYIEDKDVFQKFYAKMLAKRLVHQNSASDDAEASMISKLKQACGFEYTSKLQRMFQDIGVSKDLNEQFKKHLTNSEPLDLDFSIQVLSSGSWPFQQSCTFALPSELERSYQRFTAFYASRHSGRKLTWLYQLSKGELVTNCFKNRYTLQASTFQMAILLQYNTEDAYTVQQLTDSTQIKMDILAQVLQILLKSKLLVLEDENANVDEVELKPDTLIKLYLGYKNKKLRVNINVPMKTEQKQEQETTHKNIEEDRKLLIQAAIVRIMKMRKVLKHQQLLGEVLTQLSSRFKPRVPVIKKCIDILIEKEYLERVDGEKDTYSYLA

Row | Variant | effect of a mutation on the interaction
2 | L35A;P36A | disrupting interaction

Variants of: B2
Conditions: with cp110_human CCP110, O43303

Row | Variant | effect of a mutation on the interaction
3 | M309A;L313A | disrupting interaction
